From the supplement of paper PMC11246515
± gives the standard deviation of the averaged measurements.

Assay: total protein half-life in vivo (active degradation + dilution); higher = more stable protein
[1] = E. coli NCM3722 delta-clpP delta-lon delta-hslV, growth: N-lim chemostat, doubling time 6 h
[2] = E. coli NCM3722 delta-clpP, growth: N-lim chemostat, doubling time 6 h
[3] = E. coli NCM3722 delta-lon, growth: N-lim chemostat, doubling time 6 h
[4] = E. coli NCM3722 delta-smpB, growth: N-lim chemostat, doubling time 6 h
[5] = wild type E. coli NCM3722, growth: C-lim chemostat, doubling time 12 h
[6] = wild type E. coli NCM3722, growth: N-lim chemostat, doubling time 6 h
[7] = wild type E. coli NCM3722, growth: N-lim chemostat, doubling time 12 h
[8] = wild type E. coli NCM3722, growth: P-lim chemostat, doubling time 6 h
[9] = wild type E. coli NCM3722, growth: P-lim chemostat, doubling time 12 h
[10] = E. coli NCM3722 delta-hslV, growth: N-lim chemostat, doubling time 6 h
[11] = wild type E. coli NCM3722, growth: C-lim chemostat, doubling time 3 h
[12] = wild type E. coli NCM3722, growth: C-lim chemostat, doubling time 6 h

Sequence	total protein half-life in vivo [1]	total protein half-life in vivo [2]	total protein half-life in vivo [3]	total protein half-life in vivo [4]	total protein half-life in vivo [5]	total protein half-life in vivo [6]	total protein half-life in vivo [7]	total protein half-life in vivo [8]	total protein half-life in vivo [9]	total protein half-life in vivo [10]	total protein half-life in vivo [11]	total protein half-life in vivo [12]
MHELSLCQSAVEIIQRQAEQHDVKRVTAVWLEIGALSCVEESAVRFSFEIVCHGTVAQGCDLHIVYKPAQAWCWDCSQVVEIHQHDAQCPLCHGERLRVDTGDSLIVKSIEVE [P0A703]	4.94 ± 1.4 h	3.51 h	3.49 ± 0.32 h	3.57 h	9.8 h	3.97 ± 0.6 h	5.27 ± 1.4 h	3.77 h	8.0989 ± 0.006 h			
MATLTEDDVLEQLDAQDNLFSFMKTAHTILLQGIRQFLPSLFVDNDEEIVEYAVKPLLAQSGPLDDIDVALRLIYALGKMDKWLYADITHFSQFWHYLNEQDETPGFADDMTWDFISNVNSITRNAMLYDALKAMKFADFSVWSEARFSGMVKTALTLAVTTTLKELTP	4.21 ± 0.82 h	3.67 h	2.61 ± 0.36 h	2.07 h	4.45 ± 0.14 h	2.38 h	4.18 h	2.29 h	3.96 ± 1 h	2.45 h	2.02 h	> 8 h
MSYSNILVAVAVTPESQQLLAKAVSIARPVKGHISLITLASDPEMYNQLAAPMLEDLRSVMHEETQSFLDKLIQDAGYPVDKTFIAYGELSEHILEVCHKHHFDLVICGNHNHSFFSRASCSAKRVIASSEVDVLLVPLTGD	4.56 ± 0.81 h	3.97 h	4.66 ± 0.43 h	3.93 ± 0.25 h	9.83 ± 3.1 h	4.07 h	6.65 h	5.2 h	11.8 ± 1.2 h	4.06 h	3.26 ± 0.33 h	3.71 h
MRKILITGGAGFIGSALVRYIINETSDAVVVVDKLTYAGNLMSLAPVAQSERFAFEKVDICDRAELARVFTEHQPDCVMHLAAESHVDRSIDGPAAFIETNIVGTYTLLEAARAYWNALTEDKKSAFRFHHISTDEVYGDLHSTDDFFTETTPYAPSSPYSASKASSDHLVRAWLRTYGLPTLITNCSNNYGPYHFPEKLIPLMILNALAGKSLPVYGNGQQIRDWLYVEDHARALYCVATTGKVGETYNIGGHNERKNLDVVETICELLEELAPNKPHGVAHYRDLITFVADRPGHDLRYAIDASKIARELGWLPQETFESGMRKTVQWYLANESWWKQVQDGSYQGERLGLKG	5.27 ± 0.23 h	5.27 ± 0.67 h	5.96 ± 0.64 h	4.74 ± 0.24 h	11.7 ± 1.8 h	4.95 ± 0.23 h	10.7 ± 2.9 h	6.4 ± 0.31 h	12.61 ± 0.0068 h	5.1 ± 0.12 h		6.39 ± 0.12 h
MAFRMSEQPRTIKIYNLLAGTNEFIGEGDAYIPPHTGLPANSTDIAPPDIPAGFVAVFNSDESSWHLVEDHRGKTVYDVASGNALFISELGPLPENVTWLSPEGEFQKWNGTAWVKDTEAEKLFRIREAEETKNNLMQVASEHIAPLQDAADLEIATEEEISLLEAWKKYRVLLNRVDTSTAQDIEWPALP	3.03 h	2.56 h		1.99 h	5.44 h	3.48 h		3.08 h	7.47 ± 0.83 h	1.99 h	1.9 h	2.42 ± 0.94 h
MTSSYLHFPEFDPVIFSIGPVALHWYGLMYLVGFIFAMWLATRRANRPGSGWTKNEVENLLYAGFLGVFLGGRIGYVLFYNFPQFMADPLYLFRVWDGGMSFHGGLIGVIVVMIIFARRTKRSFFQVSDFIAPLIPFGLGAGRLGNFINGELWGRVDPNFPFAMLFPGSRTEDILLLQTNPQWQSIFDTYGVLPRHPSQLYELLLEGVVLFIILNLYIRKPRPMGAVSGLFLIGYGAFRIIVEFFRQPDAQFTGAWVQYISMGQILSIPMIVAGVIMMVWAYRRSPQQHVS	> 8 h		7.73 h			6.89 ± 0.72 h		6.28 ± 0.24 h	11.5 ± 0.95 h			
MSQVQFSHNPLFCIDIIKTYKPDFTPRVAFILGSGLGALADQIENAVAISYEKLPGFPVSTVHGHAGELVLGHLQGVPVVCMKGRGHFYEGRGMTIMTDAIRTFKLLGCELLFCTNAAGSLRPEVGAGSLVALKDHINTMPGTPMVGLNDDRFGERFFSLANAYDAEYRALLQKVAKEEGFPLTEGVFVSYPGPNFETAAEIRMMQIIGGDVVGMSVVPEVISARHCDLKVVAVSAITNMAEGLSDVKLSHAQTLAAAELSKQNFINLICGFLRKIA	5.56 ± 0.68 h			1.93 ± 0.26 h	6.43 h			2.34 h	5.82 h		2 h	
MDFSIMVYAVIALVGVAIGWLFASYQHAQQKAEQLAEREEMVAELSAAKQQITQSEHWRAECELLNNEVRSLQSINTSLEADLREVTTRMEAAQQHADDKIRQMINSEQRLSEQFENLANRIFEHSNRRVDEQNRQSLNSLLSPLREQLDGFRRQVQDSFGKEAQERHTLTHEIRNLQQLNAQMAQEAINLTRALKGDNKTQGNWGEVVLTRVLEASGLREGYEYETQVSIENDARSRMQPDVIVRLPQGKDVVIDAKMTLVAYERYFNAEDDYTRESALQEHIASVRNHIRLLGRKDYQQLPGLRTLDYVLMFIPVEPAFLLALDRQPELITEALKNNIMLVSPTTLLVALRTIANLWRYEHQSRNAQQIADRASKLYDKMRLFIDDMSAIGQSLDKAQDNYRQAMKKLSSGRGNVLAQAEAFRGLGVEIKREINPDLAEQAVSQDEEYRLRSVPEQPNDEAYQRDDEYNQQSR [P0AG71]	6.83 ± 1.6 h	5.88 ± 0.096 h	3.82 ± 0.52 h	3.36 ± 0.004 h	7.51 ± 0.44 h	3.91 ± 0.74 h	7.2 ± 1.9 h	4.59 ± 1.3 h	7.03 ± 0.77 h	4.5 ± 0.072 h	2.76 ± 0.076 h	4.87 ± 0.12 h
